Reference: patent US20230381229A1 (ALPINE IMMUNE SCIENCES, INC., published 2023)

T1: TIGIT (human)
T1 chain: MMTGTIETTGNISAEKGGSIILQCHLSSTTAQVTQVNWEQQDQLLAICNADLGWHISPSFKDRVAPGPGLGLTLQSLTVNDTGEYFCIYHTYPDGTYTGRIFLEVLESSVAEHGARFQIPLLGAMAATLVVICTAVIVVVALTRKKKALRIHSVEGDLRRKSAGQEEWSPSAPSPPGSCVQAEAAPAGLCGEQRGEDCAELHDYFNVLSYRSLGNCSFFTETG

B1: variant CD155 IgV-Fc P18S, A47G, L79P, F91S, L104M, T107A, R113W (Fc fusion)
chain: WPPPGTGDVVVQAPTQVSGFLGDSVTLPCYLQVPNMEVTHVSQLTWGRHGESGSMAVFHQTQGPSYSESKRLEFVAARPGAELRNASLRMSGLRVEDEGNYTCMFVAFPQGSWSVDIWLRVLGSGGGGSEPKSSDKTHTCPPCPAPEAEGAPSVFLFPPKPKDTLMISRTPEVTCVVVDVSHEDPEVKFNWYVDGVEVHNAKTKPREEQYNSTYRVVSVLTVLHQDWLNGKEYKCKVSNKALPAPIEKTISKAKGQPREPQVYTLPPSRDELTKNQVSLTCLVKGFYPSDIAVEWESNGQPENNYKTTPPVLDSDGSFFLYSKLTVDKSRWQQGNVFSCSVMHEALHNHYTQKSLSLSPGK
B2: variant CD155 IgV-Fc P18T, D23G, S24A, N35D, H49L, L79P, F91S, L104M, G111R (Fc fusion)
chain: WPPPGTGDVVVQAPTQVTGFLGGAVTLPCYLQVPDMEVTHVSQLTWARLGESGSMAVFHQTQGPSYSESKRLEFVAARPGAELRNASLRMSGLRVEDEGNYTCMFVTFPQRSRSVDIWLRVLGSGGGGSEPKSSDKTHTCPPCPAPEAEGAPSVFLFPPKPKDTLMISRTPEVTCVVVDVSHEDPEVKFNWYVDGVEVHNAKTKPREEQYNSTYRVVSVLTVLHQDWLNGKEYKCKVSNKALPAPIEKTISKAKGQPREPQVYTLPPSRDELTKNQVSLTCLVKGFYPSDIAVEWESNGQPENNYKTTPPVLDSDGSFFLYSKLTVDKSRWQQGNVFSCSVMHEALHNHYTQKSLSLSPGK
B3: variant CD155 IgV-Fc P18S, D23G, C29R, N35D, E37G, M55I, Q62K, S65A, S67G, R78G, L79P, F91S, L104M, T107M, Q110R (Fc fusion)
chain: WPPPGTGDVVVQAPTQVSGFLGGSVTLPRYLQVPDMGVTHVSQLTWARHGESGSIAVFHQTKGPAYGESKRLEFVAAGPGAELRNASLRMSGLRVEDEGNYTCMFVMFPRGSRSVDIWLRVLGSGGGGSEPKSSDKTHTCPPCPAPEAEGAPSVFLFPPKPKDTLMISRTPEVTCVVVDVSHEDPEVKFNWYVDGVEVHNAKTKPREEQYNSTYRVVSVLTVLHQDWLNGKEYKCKVSNKALPAPIEKTISKAKGQPREPQVYTLPPSRDELTKNQVSLTCLVKGFYPSDIAVEWESNGQPENNYKTTPPVLDSDGSFFLYSKLTVDKSRWQQGNVFSCSVMHEALHNHYTQKSLSLSPGK
B4: variant CD155 IgV-Fc V9L, P18F, T45A, S65A, S67V, R78K, L79V, F91S, T107M, S114T (Fc fusion)
chain: WPPPGTGDLVVQAPTQVFGFLGDSVTLPCYLQVPNMEVTHVSQLAWARHGESGSMAVFHQTQGPAYVESKRLEFVAAKVGAELRNASLRMSGLRVEDEGNYTCLFVMFPQGSRTVDIWLRVLGSGGGGSEPKSSDKTHTCPPCPAPEAEGAPSVFLFPPKPKDTLMISRTPEVTCVVVDVSHEDPEVKFNWYVDGVEVHNAKTKPREEQYNSTYRVVSVLTVLHQDWLNGKEYKCKVSNKALPAPIEKTISKAKGQPREPQVYTLPPSRDELTKNQVSLTCLVKGFYPSDIAVEWESNGQPENNYKTTPPVLDSDGSFFLYSKLTVDKSRWQQGNVFSCSVMHEALHNHYTQKSLSLSPGK
B5: variant CD155 IgV-Fc P18T, S52A, V57A, Q60R, Q62K, S65C, L79P, F91T, N100Y, T107M (Fc fusion)
chain: WPPPGTGDVVVQAPTQVTGFLGDSVTLPCYLQVPNMEVTHVSQLTWARHGEAGSMAAFHRTKGPCYSESKRLEFVAARPGAELRNASLRMTGLRVEDEGYYTCLFVMFPQGSRSVDIWLRVLGSGGGGSEPKSSDKTHTCPPCPAPEAEGAPSVFLFPPKPKDTLMISRTPEVTCVVVDVSHEDPEVKFNWYVDGVEVHNAKTKPREEQYNSTYRVVSVLTVLHQDWLNGKEYKCKVSNKALPAPIEKTISKAKGQPREPQVYTLPPSRDELTKNQVSLTCLVKGFYPSDIAVEWESNGQPENNYKTTPPVLDSDGSFFLYSKLTVDKSRWQQGNVFSCSVMHEALHNHYTQKSLSLSPGK
B6: variant CD155 IgV-Fc P18S, V41A, H49R, S54C, L79S, N85Y, L88P, F91S, L104M, T107M (Fc fusion)
chain: WPPPGTGDVVVQAPTQVSGFLGDSVTLPCYLQVPNMEVTHASQLTWARRGESGCMAVFHQTQGPSYSESKRLEFVAARSGAELRYASPRMSGLRVEDEGNYTCMFVMFPQGSRSVDIWLRVLGSGGGGSEPKSSDKTHTCPPCPAPEAEGAPSVFLFPPKPKDTLMISRTPEVTCVVVDVSHEDPEVKFNWYVDGVEVHNAKTKPREEQYNSTYRVVSVLTVLHQDWLNGKEYKCKVSNKALPAPIEKTISKAKGQPREPQVYTLPPSRDELTKNQVSLTCLVKGFYPSDIAVEWESNGQPENNYKTTPPVLDSDGSFFLYSKLTVDKSRWQQGNVFSCSVMHEALHNHYTQKSLSLSPGK
B7: variant CD155 IgV-Fc V9A, P18F, T61S, Q62L, L79P, F91S, G111R (Fc fusion)
chain: WPPPGTGDAVVQAPTQVFGFLGDSVTLPCYLQVPNMEVTHVSQLTWARHGESGSMAVFHQSLGPSYSESKRLEFVAARPGAELRNASLRMSGLRVEDEGNYTCLFVTFPQRSRSVDIWLRVLGSGGGGSEPKSSDKTHTCPPCPAPEAEGAPSVFLFPPKPKDTLMISRTPEVTCVVVDVSHEDPEVKFNWYVDGVEVHNAKTKPREEQYNSTYRVVSVLTVLHQDWLNGKEYKCKVSNKALPAPIEKTISKAKGQPREPQVYTLPPSRDELTKNQVSLTCLVKGFYPSDIAVEWESNGQPENNYKTTPPVLDSDGSFFLYSKLTVDKSRWQQGNVFSCSVMHEALHNHYTQKSLSLSPGK
B8: variant CD155 IgV-Fc V11A, P18T, N35S, L79P, S87T, F91S (Fc fusion)
chain: WPPPGTGDVVAQAPTQVTGFLGDSVTLPCYLQVPSMEVTHVSQLTWARHGESGSMAVFHQTQGPSYSESKRLEFVAARPGAELRNATLRMSGLRVEDEGNYTCLFVTFPQGSRSVDIWLRVLGSGGGGSEPKSSDKTHTCPPCPAPEAEGAPSVFLFPPKPKDTLMISRTPEVTCVVVDVSHEDPEVKFNWYVDGVEVHNAKTKPREEQYNSTYRVVSVLTVLHQDWLNGKEYKCKVSNKALPAPIEKTISKAKGQPREPQVYTLPPSRDELTKNQVSLTCLVKGFYPSDIAVEWESNGQPENNYKTTPPVLDSDGSFFLYSKLTVDKSRWQQGNVFSCSVMHEALHNHYTQKSLSLSPGK
B9: variant CD155 IgV-Fc V9L, P18Y, V25A, V38G, M55V, A77T, L79P, M90I, F91S, L104M (Fc fusion)
chain: WPPPGTGDLVVQAPTQVYGFLGDSATLPCYLQVPNMEGTHVSQLTWARHGESGSVAVFHQTQGPSYSESKRLEFVATRPGAELRNASLRISGLRVEDEGNYTCMFVTFPQGSRSVDIWLRVLGSGGGGSEPKSSDKTHTCPPCPAPEAEGAPSVFLFPPKPKDTLMISRTPEVTCVVVDVSHEDPEVKFNWYVDGVEVHNAKTKPREEQYNSTYRVVSVLTVLHQDWLNGKEYKCKVSNKALPAPIEKTISKAKGQPREPQVYTLPPSRDELTKNQVSLTCLVKGFYPSDIAVEWESNGQPENNYKTTPPVLDSDGSFFLYSKLTVDKSRWQQGNVFSCSVMHEALHNHYTQKSLSLSPGK
B10: variant CD155 IgV-Fc P18T, M55L, T61R, L79P, F91S, V106I, T107M (Fc fusion)
chain: WPPPGTGDVVVQAPTQVTGFLGDSVTLPCYLQVPNMEVTHVSQLTWARHGESGSLAVFHQRQGPSYSESKRLEFVAARPGAELRNASLRMSGLRVEDEGNYTCLFIMFPQGSRSVDIWLRVLGSGGGGSEPKSSDKTHTCPPCPAPEAEGAPSVFLFPPKPKDTLMISRTPEVTCVVVDVSHEDPEVKFNWYVDGVEVHNAKTKPREEQYNSTYRVVSVLTVLHQDWLNGKEYKCKVSNKALPAPIEKTISKAKGQPREPQVYTLPPSRDELTKNQVSLTCLVKGFYPSDIAVEWESNGQPENNYKTTPPVLDSDGSFFLYSKLTVDKSRWQQGNVFSCSVMHEALHNHYTQKSLSLSPGK
B11: variant CD155 IgV-Fc T15I, P18S, V33M, N35F, T39S, M55L, R78S, L79P, F91S, T107M (Fc fusion)
chain: WPPPGTGDVVVQAPIQVSGFLGDSVTLPCYLQMPFMEVSHVSQLTWARHGESGSLAVFHQTQGPSYSESKRLEFVAASPGAELRNASLRMSGLRVEDEGNYTCLFVMFPQGSRSVDIWLRVLGSGGGGSEPKSSDKTHTCPPCPAPEAEGAPSVFLFPPKPKDTLMISRTPEVTCVVVDVSHEDPEVKFNWYVDGVEVHNAKTKPREEQYNSTYRVVSVLTVLHQDWLNGKEYKCKVSNKALPAPIEKTISKAKGQPREPQVYTLPPSRDELTKNQVSLTCLVKGFYPSDIAVEWESNGQPENNYKTTPPVLDSDGSFFLYSKLTVDKSRWQQGNVFSCSVMHEALHNHYTQKSLSLSPGK
B12: variant CD155 IgV-Fc V9I, P18T, H49R, L79P, N85D, F91S, L104T, T107M (Fc fusion)
chain: WPPPGTGDIVVQAPTQVTGFLGDSVTLPCYLQVPNMEVTHVSQLTWARRGESGSMAVFHQTQGPSYSESKRLEFVAARPGAELRDASLRMSGLRVEDEGNYTCTFVMFPQGSRSVDIWLRVLGSGGGGSEPKSSDKTHTCPPCPAPEAEGAPSVFLFPPKPKDTLMISRTPEVTCVVVDVSHEDPEVKFNWYVDGVEVHNAKTKPREEQYNSTYRVVSVLTVLHQDWLNGKEYKCKVSNKALPAPIEKTISKAKGQPREPQVYTLPPSRDELTKNQVSLTCLVKGFYPSDIAVEWESNGQPENNYKTTPPVLDSDGSFFLYSKLTVDKSRWQQGNVFSCSVMHEALHNHYTQKSLSLSPGK
B13: variant CD155 IgV-Fc P18S, Q62K, K70E, L79P, F91S, G92E, R113W (Fc fusion)
chain: WPPPGTGDVVVQAPTQVSGFLGDSVTLPCYLQVPNMEVTHVSQLTWARHGESGSMAVFHQTKGPSYSESERLEFVAARPGAELRNASLRMSELRVEDEGNYTCLFVTFPQGSWSVDIWLRVLGSGGGGSEPKSSDKTHTCPPCPAPEAEGAPSVFLFPPKPKDTLMISRTPEVTCVVVDVSHEDPEVKFNWYVDGVEVHNAKTKPREEQYNSTYRVVSVLTVLHQDWLNGKEYKCKVSNKALPAPIEKTISKAKGQPREPQVYTLPPSRDELTKNQVSLTCLVKGFYPSDIAVEWESNGQPENNYKTTPPVLDSDGSFFLYSKLTVDKSRWQQGNVFSCSVMHEALHNHYTQKSLSLSPGK
B14: variant CD155 IgV-Fc V11E, P18H, F20Y, V25E, N35S, H49R, L79P, F91S, T107M, G111R (Fc fusion)
chain: WPPPGTGDVVEQAPTQVHGYLGDSETLPCYLQVPSMEVTHVSQLTWARRGESGSMAVFHQTQGPSYSESKRLEFVAARPGAELRNASLRMSGLRVEDEGNYTCLFVMFPQRSRSVDIWLRVLGSGGGGSEPKSSDKTHTCPPCPAPEAEGAPSVFLFPPKPKDTLMISRTPEVTCVVVDVSHEDPEVKFNWYVDGVEVHNAKTKPREEQYNSTYRVVSVLTVLHQDWLNGKEYKCKVSNKALPAPIEKTISKAKGQPREPQVYTLPPSRDELTKNQVSLTCLVKGFYPSDIAVEWESNGQPENNYKTTPPVLDSDGSFFLYSKLTVDKSRWQQGNVFSCSVMHEALHNHYTQKSLSLSPGK

Biological target: T1, TIGIT
Test: cell-based or functional assay

Binder | IL-2 luciferase reporter, Normalized Fold Change from CD155-ECD, proteins at 50 nM [fold]
B1 | 5
B2 | 3.2

Biological target: T1, TIGIT
Test: cell-based or functional assay
Remark: another data set of the same source

Binder | IL-2 luciferase reporter, Normalized Fold Change from CD155-ECD [fold]
B3 | 1.2
B4 | 6
B5 | 2.1
B6 | -1
B7 | 1.3
B8 | 2.1
B9 | 1.2
B10 | 4.5
B11 | 1.3
B12 | 4
B13 | 2
B14 | -0.6
